Experimental data published in IntAct's records for PubMed 31515488.

B1: Serine/threonine-protein kinase PAK 5 (Homo sapiens), Q9P286 (parent)
chain: MFGKKKKKIEISGPSNFEHRVHTGFDPQEQKFTGLPQQWHSLLADTANRPKPMVDPSCITPIQLAPMKTIVRGNKPCKETSINGLLEDFDNISVTRSNSLRKESPPTPDQGASSHGPGHAEENGFITFSQYSSESDTTADYTTEKYREKSLYGDDLDPYYRGSHAAKQNGHVMKMKHGEAYYSEVKPLKSDFARFSADYHSHLDSLSKPSEYSDLKWEYQRASSSSPLDYSFQFTPSRTAGTSGCSKESLAYSESEWGPSLDDYDRRPKSSYLNQTSPQPTMRQRSRSGSGLQEPMMPFGASAFKTHPQGHSYNSYTYPRLSEPTMCIPKVDYDRAQMVLSPPLSGSDTYPRGPAKLPQSQSKSGYSSSSHQYPSGYHKATLYHHPSLQSSSQYISTASYLSSLSLSSSTYPPPSWGSSSDQQPSRVSHEQFRAALQLVVSPGDPREYLANFIKIGEGSTGIVCIATEKHTGKQVAVKKMDLRKQQRRELLFNEVVIMRDYHHDNVVDMYSSYLVGDELWVVMEFLEGGALTDIVTHTRMNEEQIATVCLSVLRALSYLHNQGVIHRDIKSDSILLTSDGRIKLSDFGFCAQVSKEVPKRKSLVGTPYWMAPEVISRLPYGTEVDIWSLGIMVIEMIDGEPPYFNEPPLQAMRRIRDSLPPRVKDLHKVSSVLRGFLDLMLVREPSQRATAQELLGHPFLKLAGPPSCIVPLMRQYRHH
partner: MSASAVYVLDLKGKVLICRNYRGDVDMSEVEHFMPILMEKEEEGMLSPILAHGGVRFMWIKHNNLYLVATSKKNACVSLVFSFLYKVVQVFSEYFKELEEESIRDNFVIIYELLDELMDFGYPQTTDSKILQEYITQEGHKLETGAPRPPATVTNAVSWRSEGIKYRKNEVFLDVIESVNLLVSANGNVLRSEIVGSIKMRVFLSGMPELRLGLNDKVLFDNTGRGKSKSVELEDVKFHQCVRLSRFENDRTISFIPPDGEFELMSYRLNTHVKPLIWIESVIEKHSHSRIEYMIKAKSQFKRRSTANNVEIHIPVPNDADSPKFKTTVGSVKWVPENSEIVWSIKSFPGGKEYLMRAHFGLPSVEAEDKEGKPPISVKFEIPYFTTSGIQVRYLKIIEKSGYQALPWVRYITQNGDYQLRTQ
B2: Syntenin-2 (Homo sapiens), Q9H190 (parent)
chain: MSSLYPSLEDLKVDQAIQAQVRASPKMPALPVQATAISPPPVLYPNLAELENYMGLSLSSQEVQESLLQIPEGDSTAVSGPGPGQMVAPVTGYSLGVRRAEIKPGVREIHLCKDERGKTGLRLRKVDQGLFVQLVQANTPASLVGLRFGDQLLQIDGRDCAGWSSHKAHQVVKKASGDKIVVVVRDRPFQRTVTMHKDSMGHVGFVIKKGKIVSLVKGSSAARNGLLTNHYVCEVDGQNVIGLKDKKIMEILATAGNVVTLTIIPSVIYEHMVKKLPPVLLHHTMDHSIPDA
partner: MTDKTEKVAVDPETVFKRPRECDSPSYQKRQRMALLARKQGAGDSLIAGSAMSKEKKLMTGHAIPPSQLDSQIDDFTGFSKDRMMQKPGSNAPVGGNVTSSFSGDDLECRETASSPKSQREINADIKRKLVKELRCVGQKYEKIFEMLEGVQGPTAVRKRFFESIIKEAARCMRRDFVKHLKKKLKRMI
B3: IQ motif and ubiquitin-like domain-containing protein (Homo sapiens), Q8NA54 (parent)
chain: MSNQQEKYEAQNIVNSTEESDDAFDTVTIPVPSEEPQESDQTEEHESGIEQFSESHAIHVEEQSDQSFSSLEPDNEQLMEEVISPRQVSYTPQHHEKQYAMQRPNDDSLAFLDKIKSVKESLQESVEDSLATVKVVLIPVGQEIVIPFKVDTILKYLKDHFSHLLGIPHSVLQIRYSGKILKNNETLVQHGVKPQEIVQVEIFSTNPDLYPVRRIDGLTDVSQIITVTVQTGLDQYQQVPVEIVKSDFHKPFLGGFRHKVTGVEYHNAGTQTVPKRIPERLSIFCRDTQTVFQKKNLQQTTNTTSTQMTNIGVYVSNMTDKLVTPGKYFSAAEYHAQRLKAVIVIQTYYRQWHAKIFVENLRRQKSLRLEWETQQELRKIREKEEWIKLDYHRRHNPKTNEDFEFLYNALEFWRQEELTRINQSFTGAERKAALCELLEKETQIIASIGRHRYIAYMANQEAAIQAFLDKCSAPKIWRTPNGKTIEMDTQFTIRARELQNIYKCIMLKNISQDERLDVLLTLKHTVKEHECKLTQEILELIDREVDLMMRGVKHHNLEGLRKRIATLFFHYIKTPLFNPEVAKYLKVPQDPLKFYKKIYFCHSCQLYLPSTEFSVSSTSRRIYRCRNCINLQNEAQKRESFLKYKCLLQQLYYTEADYEDDSKIAFLMQLQDIQYLTENIWASQSVLSACDNLSDLVMVRWNKSLEWSPWNCILLTKDEAAAHLKLTSIEEGYERSFIHKIKHKHILAKNYFSQVPVLASFILDDGEIDEIRWKYHSDTTPKIIESQRPPH
B4: Chondroitin sulfate N-acetylgalactosaminyltransferase 2 (Homo sapiens), Q8N6G5 (parent)
chain: MPRRGLILHTRTHWLLLGLALLCSLVLFMYLLECAPQTDGNASLPGVVGENYGKEYYQALLQEQEEHYQTRATSLKRQIAQLKQELQEMSEKMRSLQERRNVGANGIGYQSNKEQAPSDLLEFLHSQIDKAEVSIGAKLPSEYGVIPFESFTLMKVFQLEMGLTRHPEEKPVRKDKRDELVEVIEAGLEVINNPDEDDEQEDEEGPLGEKLIFNENDFVEGYYRTERDKGTQYELFFKKADLTEYRHVTLFRPFGPLMKVKSEMIDITRSIINIIVPLAERTEAFVQFMQNFRDVCIHQDKKIHLTVVYFGKEGLSKVKSILESVTSESNFHNYTLVSLNEEFNRGRGLNVGARAWDKGEVLMFFCDVDIYFSAEFLNSCRLNAEPGKKVFYPVVFSLYNPAIVYANQEVPPPVEQQLVHKKDSGFWRDFGFGMTCQYRSDFLTIGGFDMEVKGWGGEDVHLYRKYLHGDLIVIRTPVPGLFHLWHEKRCADELTPEQYRMCIQSKAMNEASHSHLGMLVFREEIETHLHKQAYRTNSEAVG
B5: Notch homolog 2 N-terminal-like protein A (Homo sapiens), Q7Z3S9 (parent)
chain: MCVTYHNGTGYCKCPEGFLGEYCQHRDPCEKNRCQNGGTCVAQAMLGKATCRCASGFTGEDCQYSTSHPCFVSRPCLNGGTCHMLSRDTYECTCQVGFTGKECQWTDACLSHPCANGSTCTTVANQFSCKCLTGFTGQKCETDVNECDIPGHCQHGGTCLNLPGSYQCQCLQGFTGQYCDSLYVPCAPSPCVNGGTCRQTGDFTFECNCLPETVRRGTELWERDREVWNGKEHDEN
partner: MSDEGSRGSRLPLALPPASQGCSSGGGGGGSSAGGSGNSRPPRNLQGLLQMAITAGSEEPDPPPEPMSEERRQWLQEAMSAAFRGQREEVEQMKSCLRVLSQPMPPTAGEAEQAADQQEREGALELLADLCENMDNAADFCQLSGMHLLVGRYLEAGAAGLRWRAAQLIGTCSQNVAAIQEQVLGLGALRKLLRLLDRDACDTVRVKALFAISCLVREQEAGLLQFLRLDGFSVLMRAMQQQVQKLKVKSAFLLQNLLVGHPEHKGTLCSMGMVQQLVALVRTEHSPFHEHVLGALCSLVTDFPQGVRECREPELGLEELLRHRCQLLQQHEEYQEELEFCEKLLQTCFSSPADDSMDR
B6: Protein FAM9B (Homo sapiens), Q8IZU0 (parent)
chain: MAAWGKKHAGKDPVRDECEERNRFTETREEDVTDEHGEREPFAETDEHTGANTKKPEDTAEDLTAKRKRMKMDKTCSKTKNKSKHALRKKQLKRQKRDYIHSLKLLNVLEEYITDEQKEEEEEEGEEEELIRIFQEQQKKWQQYRSVRRERLKEMKLLRDQFVKALEDFEDLCDRVFSDEDSELDN
partner: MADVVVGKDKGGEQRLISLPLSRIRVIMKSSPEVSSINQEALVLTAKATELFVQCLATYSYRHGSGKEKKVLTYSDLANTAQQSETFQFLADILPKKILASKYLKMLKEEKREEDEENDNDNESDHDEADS
B7: "Peptide-N(4)-(N-acetyl-beta-glucosaminyl)asparagine amidase" (Homo sapiens), Q96IV0 (parent)
chain: MAAAALGSSSGSASPAVAELCQNTPETFLEASKLLLTYADNILRNPNDEKYRSIRIGNTAFSTRLLPVRGAVECLFEMGFEEGETHLIFPKKASVEQLQKIRDLIAIERSSRLDGSNKSHKVKSSQQPAASTQLPTTPSSNPSGLNQHTRNRQGQSSDPPSASTVAADSAILEVLQSNIQHVLVYENPALQEKALACIPVQELKRKSQEKLSRARKLDKGINISDEDFLLLELLHWFKEEFFHWVNNVLCSKCGGQTRSRDRSLLPSDDELKWGAKEVEDHYCDACQFSNRFPRYNNPEKLLETRCGRCGEWANCFTLCCRAVGFEARYVWDYTDHVWTEVYSPSQQRWLHCDACEDVCDKPLLYEIGWGKKLSYVIAFSKDEVVDVTWRYSCKHEEVIARRTKVKEALLRDTINGLNKQRQLFLSENRRKELLQRIIVELVEFISPKTPKPGELGGRISGSVAWRVARGEMGLQRKETLFIPCENEKISKQLHLCYNIVKDRYVRVSNNNQTISGWENGVWKMESIFRKVETDWHMVYLARKEGSSFAYISWKFECGSVGLKVDSISIRTSSQTFQTGTVEWKLRSDTAQVELTGDNSLHSYADFSGATEVILEAELSRGDGDVAWQHTQLFRQSLNDHEENCLEIIIKFSDL
partner: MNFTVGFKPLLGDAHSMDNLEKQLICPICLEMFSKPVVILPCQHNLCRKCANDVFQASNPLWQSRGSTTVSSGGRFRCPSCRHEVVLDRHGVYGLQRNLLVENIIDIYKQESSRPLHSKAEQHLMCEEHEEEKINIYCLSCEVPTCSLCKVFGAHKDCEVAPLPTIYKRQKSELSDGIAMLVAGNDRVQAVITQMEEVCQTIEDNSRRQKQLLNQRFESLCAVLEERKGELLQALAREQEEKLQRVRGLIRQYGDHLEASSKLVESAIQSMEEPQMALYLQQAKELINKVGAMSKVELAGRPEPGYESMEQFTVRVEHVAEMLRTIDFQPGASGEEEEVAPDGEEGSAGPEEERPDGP
B8: Sperm microtubule associated protein 2 (Homo sapiens), Q9P2T0 (parent)
chain: MGDSRRRSLGNQPSSEAAGRSEREQDGDPRGLQSSVYESRRVTDPERQDLDNAELGPEDPEEELPPEEVAGEEFPETLDPKEALSELERVLDKDLEEDIPEISRLSISQKLPSTTMTKARKRRRRRRLMELAEPKINWQVLKDRKGRCGKGYAWISPCKMSLHFCLCWPSVYWTERFLEDTTLTITVPAVSRRVEELSRPKRFYLEYYNNNRTTPVWPIPRSSLEYRASSRLKELAAPKIRDNFWSMPMSEVSQVSRAAQMAVPSSRILQLSKPKAPATLLEEWDPVPKPKPHVSDHNRLLHLARPKAQSDKCVPDRDPRWEVLDVTKKVVASPRIISLAKPKVRKGLNEGYDRRPLASMSLPPPKASPEKCDQPRPGL
B9: Phenazine biosynthesis-like domain-containing protein (Homo sapiens), P30039 (parent)
chain: MKLPIFIADAFTARAFRGNPAAVCLLENELDEDMHQKIAREMNLSETAFIRKLHPTDNFAQSSCFGLRWFTPASEVPLCGHATLASAAVLFHKIKNMNSTLTFVTLSGELRARRAEDGIVLDLPLYPAHPQDFHEVEDLIKTAIGNTLVQDICYSPDTQKLLVRLSDVYNRSFLENLKVNTENLLQVENTGKVKGLILTLKGEPGGQTQAFDFYSRYFAPWVGVAEDPVTGSAHAVLSSYWSQHLGKKEMHAFQCSHRGGELGISLRPDGRVDIRGGAAVVLEGTLTA
partner: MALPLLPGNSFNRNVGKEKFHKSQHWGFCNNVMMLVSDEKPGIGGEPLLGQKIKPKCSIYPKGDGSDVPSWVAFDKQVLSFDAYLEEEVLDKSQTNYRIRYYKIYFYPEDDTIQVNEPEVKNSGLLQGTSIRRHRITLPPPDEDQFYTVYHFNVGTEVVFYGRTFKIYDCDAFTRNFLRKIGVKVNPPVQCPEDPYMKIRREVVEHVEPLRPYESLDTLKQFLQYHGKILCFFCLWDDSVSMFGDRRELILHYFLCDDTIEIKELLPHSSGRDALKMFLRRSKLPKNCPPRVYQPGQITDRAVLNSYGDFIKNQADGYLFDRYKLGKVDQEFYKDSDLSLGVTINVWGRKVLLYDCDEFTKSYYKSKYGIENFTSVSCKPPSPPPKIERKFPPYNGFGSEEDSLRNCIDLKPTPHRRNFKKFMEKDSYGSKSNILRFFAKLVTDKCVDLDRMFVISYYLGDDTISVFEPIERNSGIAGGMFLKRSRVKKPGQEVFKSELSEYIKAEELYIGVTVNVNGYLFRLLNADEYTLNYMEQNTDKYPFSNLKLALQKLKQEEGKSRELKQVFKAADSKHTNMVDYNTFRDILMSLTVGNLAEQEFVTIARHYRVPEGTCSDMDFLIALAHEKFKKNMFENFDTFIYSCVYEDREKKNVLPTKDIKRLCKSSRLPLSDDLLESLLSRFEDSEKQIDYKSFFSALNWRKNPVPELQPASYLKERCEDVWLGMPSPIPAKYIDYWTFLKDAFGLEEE

Variants of: B1
Details: with ap1m1_human AP1M1, Q9BXS5

effect of a mutation on the interaction	Variant
with no effect	S511N

Variants of: B2
Details: with ct453_human CT45A3, Q8NHU0

effect of a mutation on the interaction	Variant
with no effect	R223C

Variants of: B3
Details: with tri23_human TRIM23, P36406
Sequence of tri23_human TRIM23, P36406 (P36406 whole entry): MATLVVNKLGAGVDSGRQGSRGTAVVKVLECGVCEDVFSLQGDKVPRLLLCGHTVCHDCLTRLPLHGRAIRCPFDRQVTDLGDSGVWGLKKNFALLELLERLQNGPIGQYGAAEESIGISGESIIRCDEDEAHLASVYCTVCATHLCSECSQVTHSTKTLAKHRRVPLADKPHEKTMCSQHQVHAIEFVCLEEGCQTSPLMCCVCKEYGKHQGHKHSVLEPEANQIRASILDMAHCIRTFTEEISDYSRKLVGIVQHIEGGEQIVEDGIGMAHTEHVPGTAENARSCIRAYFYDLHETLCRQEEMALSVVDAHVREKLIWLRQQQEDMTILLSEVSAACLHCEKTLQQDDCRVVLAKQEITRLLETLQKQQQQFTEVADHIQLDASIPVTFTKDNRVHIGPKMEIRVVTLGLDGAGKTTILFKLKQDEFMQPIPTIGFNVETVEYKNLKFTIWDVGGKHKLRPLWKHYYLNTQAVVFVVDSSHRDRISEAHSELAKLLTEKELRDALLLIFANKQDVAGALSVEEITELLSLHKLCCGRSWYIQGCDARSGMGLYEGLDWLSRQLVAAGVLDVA

effect of a mutation on the interaction	Variant
with no effect	V126M

Variants of: B4
Details: with BCL2L13, Q9BXK5
Sequence of BCL2L13, Q9BXK5 (Q9BXK5 whole entry): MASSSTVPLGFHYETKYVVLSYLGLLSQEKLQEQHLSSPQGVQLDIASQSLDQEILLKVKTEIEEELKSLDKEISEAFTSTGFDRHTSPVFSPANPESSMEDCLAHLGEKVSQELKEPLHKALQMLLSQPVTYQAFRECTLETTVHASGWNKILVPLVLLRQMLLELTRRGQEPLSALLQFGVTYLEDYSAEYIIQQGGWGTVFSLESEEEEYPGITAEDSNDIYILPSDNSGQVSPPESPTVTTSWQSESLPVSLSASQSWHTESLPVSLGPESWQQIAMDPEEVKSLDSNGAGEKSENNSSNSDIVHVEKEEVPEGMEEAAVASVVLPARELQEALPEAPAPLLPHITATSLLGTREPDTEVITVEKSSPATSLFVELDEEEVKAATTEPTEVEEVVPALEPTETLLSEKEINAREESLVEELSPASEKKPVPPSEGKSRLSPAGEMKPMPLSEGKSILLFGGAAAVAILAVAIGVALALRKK

effect of a mutation on the interaction	Variant
with no effect	P479S

Variants of: B5
Details: with hpbp1_human HSPBP1, Q9NZL4

effect of a mutation on the interaction	Variant
with no effect	A115T
with no effect	R74Q

Variants of: B6
Details: with chrc1_human CHRAC1, Q9NRG0

effect of a mutation on the interaction	Variant
with no effect	R23H

Variants of: B7
Details: with tri54_human TRIM54, Q9BYV2

effect of a mutation on the interaction	Variant
with no effect	F292L
with no effect	V184F

Variants of: B8
Details: with fhl3_human FHL3, Q13643
Sequence of fhl3_human FHL3, Q13643 (Q13643 whole entry): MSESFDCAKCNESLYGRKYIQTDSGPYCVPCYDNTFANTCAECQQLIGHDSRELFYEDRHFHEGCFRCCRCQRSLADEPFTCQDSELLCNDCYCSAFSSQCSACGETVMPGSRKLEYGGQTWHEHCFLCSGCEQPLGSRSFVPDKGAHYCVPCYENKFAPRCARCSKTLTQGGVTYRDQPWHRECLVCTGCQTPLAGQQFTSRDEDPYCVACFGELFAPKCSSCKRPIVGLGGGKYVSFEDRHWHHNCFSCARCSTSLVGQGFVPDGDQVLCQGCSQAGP

Variant	effect of a mutation on the interaction
D79G	with no effect
L131R	with no effect
S39N	with no effect
R147C	with no effect
P66S	with no effect
R176Q	with no effect
R176W	with no effect

Further lines, results first:

effect of a mutation on the interaction	Variant
with no effect	H297Y
with no effect	M249V
with no effect	T184A
with no effect	R231H

Variants of: B9
Details: with efhc2_human EFHC2, Q5JST6

effect of a mutation on the interaction	Variant
disrupting interaction strength	H257R
disrupting interaction strength	A235T
